Source: article PMC5692578 (Proceedings of the National Academy of Sciences of the …, 2017)

T1: Mcm4 (S. cerevisiae, UniProt P30665 1-933)
T1 sequence: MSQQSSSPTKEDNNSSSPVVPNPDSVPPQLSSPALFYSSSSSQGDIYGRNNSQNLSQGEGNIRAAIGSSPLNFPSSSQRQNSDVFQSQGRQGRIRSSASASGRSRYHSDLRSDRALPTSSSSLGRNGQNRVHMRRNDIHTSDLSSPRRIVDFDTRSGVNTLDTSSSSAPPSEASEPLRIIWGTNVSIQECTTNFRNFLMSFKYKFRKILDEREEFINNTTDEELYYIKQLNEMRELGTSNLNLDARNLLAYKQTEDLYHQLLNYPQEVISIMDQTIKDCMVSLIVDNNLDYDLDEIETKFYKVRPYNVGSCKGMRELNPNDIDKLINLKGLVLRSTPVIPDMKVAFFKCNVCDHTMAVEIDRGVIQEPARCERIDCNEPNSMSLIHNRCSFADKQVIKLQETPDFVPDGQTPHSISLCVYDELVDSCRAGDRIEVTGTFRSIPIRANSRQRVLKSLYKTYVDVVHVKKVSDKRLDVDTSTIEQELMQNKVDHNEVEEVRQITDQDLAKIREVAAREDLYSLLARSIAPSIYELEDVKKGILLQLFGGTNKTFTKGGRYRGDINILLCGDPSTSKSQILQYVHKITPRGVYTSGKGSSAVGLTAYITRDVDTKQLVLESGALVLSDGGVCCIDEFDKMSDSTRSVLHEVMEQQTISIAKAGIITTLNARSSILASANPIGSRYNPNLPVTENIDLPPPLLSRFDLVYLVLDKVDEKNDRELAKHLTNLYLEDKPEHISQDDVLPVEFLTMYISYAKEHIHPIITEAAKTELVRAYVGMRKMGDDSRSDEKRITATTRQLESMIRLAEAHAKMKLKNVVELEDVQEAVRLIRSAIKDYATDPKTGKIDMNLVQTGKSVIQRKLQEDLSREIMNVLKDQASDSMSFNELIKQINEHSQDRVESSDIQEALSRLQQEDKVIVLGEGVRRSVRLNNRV

B1: Mcm5 (natural protein)
chain: MSFDRPEIYSAPVLQGESPNDDDNTEIIKSFKNFILEFRLDSQFIYRDQLRNNILVKNYSLTVNMEHLIGYNEDIYKKLSDEPSDIIPLFETAITQVAKRISILSRAQSANNNDKDPENTSMDTDSLLLNSLPTFQLILNSNANQIPLRDLDSEHVSKIVRLSGIIISTSVLSSRATYLSIMCRNCRHTTSITINNFNSITGNTVSLPRSCLSTIESESSMANESNIGDESTKKNCGPDPYIIIHESSKFIDQQFLKLQEIPELVPVGEMPRNLTMTCDRYLTNKVIPGTRVTIVGIYSIYNSKNGAGSGRSGGGNGGSGVAIRTPYIKILGIQSDVETSSIWNSVTMFTEEEEEEFLQLSRNPKLYEILTNSIAPSIFGNEDIKKAIVCLLMGGSKKILPDGMRLRGDINVLLLGDPGTAKSQLLKFVEKVSPIAVYTSGKGSSAAGLTASVQRDPMTREFYLEGGAMVLADGGVVCIDEFDKMRDEDRVAIHEAMEQQTISIAKAGITTVLNSRTSVLAAANPIYGRYDDLKSPGDNIDFQTTILSRFDMIFIVKDDHNEERDISIANHVINIHTGNANAMQNQQEENGSEISIEKMKRYITYCRLKCAPRLSPQAAEKLSSNFVTIRKQLLINELESTERSSIPITIRQLEAIIRITESLAKLELSPIAQERHVDEAIRLFQASTMDAASQDPIGGLNQASGTSLSEIRRFEQELKRRLPIGWSTSYQTLRREFVDTHRFSQLALDKALYALEKHETIQLRHQGQNIYRSGV
B2: Mcm7 (natural protein)
chain: MSAALPSIQLPVDYNNLFNEITDFLVTFKQDTLSSDATRNENEDENLDAENIEQHLLEKGPKYMAMLQKVANRELNSVIIDLDDILQYQNEKFLQGTQADDLVSAIQQNANHFTELFCRAIDNNMPLPTKEIDYKDDVLDVILNQRRLRNERMLSDRTNEIRSENLMDTTMDPPSSMNDALREVVEDETELFPPNLTRRYFLYFKPLSQNCARRYRKKAISSKPLSVRQIKGDFLGQLITVRGIITRVSDVKPAVEVIAYTCDQCGYEVFQEVNSRTFTPLSECTSEECSQNQTKGQLFMSTRASKFSAFQECKIQELSQQVPVGHIPRSLNIHVNGTLVRSLSPGDIVDVTGIFLPAPYTGFKALKAGLLTETYLEAQFVRQHKKKFASFSLTSDVEERVMELITSGDVYNRLAKSIAPEIYGNLDVKKALLLLLVGGVDKRVGDGMKIRGDINVCLMGDPGVAKSQLLKAICKISPRGVYTTGKGSSGVGLTAAVMKDPVTDEMILEGGALVLADNGICCIDEFDKMDESDRTAIHEVMEQQTISISKAGINTTLNARTSILAAANPLYGRYNPRLSPLDNINLPAALLSRFDILFLMLDIPSRDDDEKLAEHVTYVHMHNKQPDLDFTPVEPSKMREYIAYAKTKRPVMSEAVNDYVVQAYIRLRQDSKREMDSKFSFGQATPRTLLGIIRLSQALAKLRLADMVDIDDVEEALRLVRVSKESLYQETNKSKEDESPTTKIFTIIKKMLQETGKNTLSYENIVKTVRLRGFTMLQLSNCIQEYSYLNVWHLINEGNTLKFVDDGTMDTDQEDSLVSTPKLAPQTTASANVSAQDSDIDLQDA

How the values were obtained:
Experiment in all cases: cryo-EM structure
Mcm7 = target: B2
Mcm3 = Mcm3 (S. cerevisiae, UniProt P24279 1-971)
Mcm3, sequence (P24279 whole entry): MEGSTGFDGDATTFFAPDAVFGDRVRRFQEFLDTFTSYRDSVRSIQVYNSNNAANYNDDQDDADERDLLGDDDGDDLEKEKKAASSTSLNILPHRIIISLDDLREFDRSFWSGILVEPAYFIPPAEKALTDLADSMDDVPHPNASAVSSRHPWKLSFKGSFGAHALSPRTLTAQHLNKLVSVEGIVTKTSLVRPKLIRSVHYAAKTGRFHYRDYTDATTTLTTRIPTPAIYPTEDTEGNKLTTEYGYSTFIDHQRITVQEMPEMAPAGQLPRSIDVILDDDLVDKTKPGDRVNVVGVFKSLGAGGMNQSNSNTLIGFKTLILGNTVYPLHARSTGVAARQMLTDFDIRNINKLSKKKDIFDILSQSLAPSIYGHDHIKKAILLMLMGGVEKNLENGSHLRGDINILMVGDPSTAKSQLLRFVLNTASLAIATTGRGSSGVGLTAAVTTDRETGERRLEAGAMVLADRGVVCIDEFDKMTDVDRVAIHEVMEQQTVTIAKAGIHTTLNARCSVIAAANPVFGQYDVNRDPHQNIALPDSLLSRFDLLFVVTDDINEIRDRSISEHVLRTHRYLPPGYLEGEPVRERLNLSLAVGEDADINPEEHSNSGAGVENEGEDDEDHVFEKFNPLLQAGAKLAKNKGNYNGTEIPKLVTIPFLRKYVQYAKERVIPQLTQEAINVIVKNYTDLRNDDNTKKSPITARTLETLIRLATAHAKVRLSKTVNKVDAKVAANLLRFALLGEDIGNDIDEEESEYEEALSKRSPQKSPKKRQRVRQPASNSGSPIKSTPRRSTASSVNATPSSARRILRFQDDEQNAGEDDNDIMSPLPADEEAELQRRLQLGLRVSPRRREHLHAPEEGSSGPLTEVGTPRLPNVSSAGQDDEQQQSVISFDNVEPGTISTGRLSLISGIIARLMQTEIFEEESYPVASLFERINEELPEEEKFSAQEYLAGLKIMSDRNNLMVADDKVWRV

Mcm4 = target: T1, Mcm4

B1: binds (Mcm7).

B2: binds (Mcm3); binds (Mcm4).
